For one molecule, Kd and koff results are on record in article PMC11529722 (Science Advances, 2024).

This test concerns the target valosin-containing protein (VCP), histidine-tagged (UniProt P55072 1-806). Kind of test: BLI.

Sequence of valosin-containing protein (VCP), histidine-tagged (P55072 whole entry): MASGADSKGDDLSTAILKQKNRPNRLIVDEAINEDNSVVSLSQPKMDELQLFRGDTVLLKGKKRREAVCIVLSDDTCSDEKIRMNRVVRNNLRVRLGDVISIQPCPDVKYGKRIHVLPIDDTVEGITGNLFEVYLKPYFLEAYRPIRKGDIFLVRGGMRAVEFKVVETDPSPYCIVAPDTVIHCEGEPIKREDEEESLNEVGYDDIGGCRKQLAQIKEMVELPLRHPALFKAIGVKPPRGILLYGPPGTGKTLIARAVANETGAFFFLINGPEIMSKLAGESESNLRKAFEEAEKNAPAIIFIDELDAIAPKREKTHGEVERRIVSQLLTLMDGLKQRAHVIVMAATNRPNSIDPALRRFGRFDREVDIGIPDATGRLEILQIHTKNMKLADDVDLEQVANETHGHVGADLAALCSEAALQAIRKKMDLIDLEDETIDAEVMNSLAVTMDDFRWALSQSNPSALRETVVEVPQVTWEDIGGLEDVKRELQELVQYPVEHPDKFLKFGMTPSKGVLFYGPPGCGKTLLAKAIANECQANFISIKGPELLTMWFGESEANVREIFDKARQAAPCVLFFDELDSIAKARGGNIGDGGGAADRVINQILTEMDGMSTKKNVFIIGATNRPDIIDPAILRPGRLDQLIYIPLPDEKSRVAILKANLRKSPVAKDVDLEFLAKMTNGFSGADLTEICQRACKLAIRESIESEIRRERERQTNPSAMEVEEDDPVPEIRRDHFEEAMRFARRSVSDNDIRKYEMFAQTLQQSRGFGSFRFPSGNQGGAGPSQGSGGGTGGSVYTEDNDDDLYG

B1: P1, protein-like polymer (PLP) with HVLVMSATRR peptide side chains (other)
peptide: HVLVMSATRR
modifications: N terminus conjugated to N-(hexanoic acid)-exo-5-norbornene-2,3-dicarboximide, polymerised through the norbornene (ROMP) into the polymer backbone
As for B1, the Kd turned out to be 92 nM and the koff is 2.5e-05 s⁻¹.
